From patent US20190338048A1
pKd: −log10 of the molar value. Like-named read-outs stand apart in the source and are kept apart here.

What was measured:
[1] = molecular target: Recombinant human IL-17A (human) (UniProt Q16552); test: SPR
[2] = molecular target: Recombinant human IL-17A (human) (UniProt Q16552); test: SPR; remark: listed apart in the source
[3] = molecular target: CAT-2200 heavy chain Fab construct (H1) S186R; test: LCCA, SPR tag read-out
[4] = molecular target: CAT-2200 heavy chain Fab construct (H1) Q39K; test: LCCA, SPR tag read-out
[5] = molecular target: Recombinant human IL-17A (human) (UniProt Q16552); test: SPR; remark: listed apart in the source
[6] = molecular target: Pertuzumab kappa light chain P44F_S131R_V133G_S176R; test: LCCA, SPR tag read-out
[7] = molecular target: Pertuzumab kappa light chain S131K_L135K; test: LCCA, SPR tag read-out
[8] = molecular target: CAT-2200 lambda light chain K129T_V133D; test: LCCA, SPR
[9] = molecular target: Pertuzumab kappa light chain S131K_V133G_S176R_T178A; test: LCCA, SPR
[10] = molecular target: Pertuzumab kappa light chain S131R_V133G_S176R_T178A; test: LCCA, SPR
[11] = molecular target: CAT-2200 lambda light chain K129T_V133D; test: LCCA, SPR; remark: listed apart in the source
[12] = molecular target: Pertuzumab kappa light chain S131K_V133G_S176R_T178A (L2), HA-tagged; test: LCCA, SPR of light-chain tags
[13] = molecular target: Pertuzumab kappa light chain S131R_V133G_S176R_T178A (L2), HA-tagged; test: LCCA, SPR of light-chain tags
[14] = molecular target: Pertuzumab kappa light chain S131R_V133G_S176R_T178A (L2), HA-tagged; test: LCCA, SPR of light-chain tags; remark: listed apart in the source
[15] = molecular target: Pertuzumab kappa light chain S131R_V133S_L135K; test: LCCA, SPR
[16] = molecular target: Pertuzumab kappa light chain V133A_S176K_T178A (L2), HA-tagged; test: LCCA, SPR of light-chain tags
[17] = molecular target: Pertuzumab kappa light chain V133G_S176R_T178A (L2), HA-tagged; test: LCCA, SPR of light-chain tags
[18] = molecular target: Pertuzumab kappa light chain V133A_S176K_T178A (L2), HA-tagged; test: LCCA, SPR of light-chain tags; remark: listed apart in the source
[19] = molecular target: Pertuzumab kappa light chain V133G_S176R_T178A (L2), HA-tagged; test: LCCA, SPR of light-chain tags; remark: listed apart in the source
[20] = molecular target: Pertuzumab kappa light chain Q124E_V133G_S176D_T178D; test: LCCA
[21] = molecular target: Pertuzumab kappa light chain V133G_S176D_T178E; test: LCCA, SPR
[22] = molecular target: Pertuzumab kappa light chain V133G_S176D_T180E; test: LCCA, SPR
[23] = molecular target: CAT-2200 lambda light chain E124Q_T131R; test: LCCA, SPR
[24] = molecular target: Pertuzumab kappa light chain V133G_S176D_T178E; test: LCCA, SPR; remark: listed apart in the source
[25] = molecular target: Pertuzumab kappa light chain V133G_S176D_T180E; test: LCCA, SPR; remark: listed apart in the source
[26] = molecular target: CAT-2200 lambda light chain E124Q_T131K; test: LCCA, SPR
[27] = molecular target: Pertuzumab kappa light chain V133G_L135W_S176D_T180E; test: LCCA, SPR tag read-out
[28] = molecular target: Pertuzumab kappa light chain V133G_L135W_S176D_T180E; test: LCCA, SPR tag read-out; remark: listed apart in the source
[29] = molecular target: CAT-2200 lambda light chain S122D_K129T_S180E; test: LCCA
[30] = molecular target: Pertuzumab kappa light chain S121K_Q124R_Q160K_T178R; test: LCCA
[31] = molecular target: Pertuzumab kappa light chain S121K_Q124R_T178R; test: LCCA
[32] = molecular target: Pertuzumab kappa light chain Q124R_Q160R_S176A_T178R; test: LCCA, SPR
[33] = molecular target: Pertuzumab kappa light chain Q124R_S176A_T178R; test: LCCA, SPR
[34] = molecular target: Pertuzumab kappa light chain Q124K_L135A_T178R; test: LCCA
[35] = molecular target: Pertuzumab kappa light chain Q124R_L135A_Q160K_T178R; test: LCCA
[36] = molecular target: Pertuzumab kappa light chain S121K_Q124E_V133D; test: LCCA, SPR tag read-out
[37] = molecular target: Pertuzumab kappa light chain Q124E_V133D_L135A; test: LCCA, SPR tag read-out
[38] = molecular target: Pertuzumab kappa light chain L135A (L2), N-terminal HA tag; test: LCCA, SPR of light chain tags
[39] = molecular target: CAT-2200 lambda light chain T116F_S176F (L1), N-terminal FLAG tag; test: LCCA, SPR of light chain tags
[40] = molecular target: Pertuzumab kappa light chain L135A (L2), N-terminal HA tag; test: LCCA, SPR of light chain tags; remark: listed apart in the source
[41] = molecular target: Pertuzumab kappa light chain T178F (L2), N-terminal HA tag; test: LCCA, SPR of light chain tags
[42] = molecular target: Pertuzumab kappa light chain, wild type (L2), N-terminal HA tag; test: LCCA, SPR of light chain tags
[43] = molecular target: Pertuzumab kappa light chain V133A (L2), N-terminal HA tag; test: LCCA, SPR of light chain tags
[44] = molecular target: Pertuzumab light chain (kappa) V133G_S176D_T178E, HA-tagged; test: LCCA
[45] = molecular target: Pertuzumab light chain (kappa) V133G_S176D_T180E, HA-tagged; test: LCCA
[46] = molecular target: Pertuzumab light chain (kappa) V133G_S176D_T178E, HA-tagged; test: LCCA; remark: listed apart in the source
[47] = molecular target: Pertuzumab light chain (kappa) V133G_S176D_T180E, HA-tagged; test: LCCA; remark: listed apart in the source

Recombinant human IL-17A (human), sequence (Q16552 20-155 limits assumed): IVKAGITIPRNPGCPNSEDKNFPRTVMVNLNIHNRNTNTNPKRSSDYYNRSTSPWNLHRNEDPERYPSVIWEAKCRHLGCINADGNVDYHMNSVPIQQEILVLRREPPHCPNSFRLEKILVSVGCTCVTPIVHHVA

CAT-2200 Fab heterodimer (H1L1) with H1 S188K and L1 S176D_Y178E
pKd [1]: 9.43
Change in KD of H1L1 Fab vs wild type [2]: -0.13
Change in KD of H1L1 Fab vs wild type, -(log(KD design)-log(KD wt)) [2]: -0.13
pKd [2]: 9.43

CAT-2200 Fab heterodimer (H1L1) with H1 S188K and L1 S176E_Y178E
pKd [1]: 9.44
Change in KD of H1L1 Fab vs wild type [2]: -0.12

CAT-2200 Fab heterodimer (H1L1) with H1 V177I_S188K and L1 V133I_S176D_Y178E
pKd [1]: 9.64
Change in KD of H1L1 Fab vs wild type [2]: 0.08

CAT-2200 lambda light chain construct (L1) K129T_S180E, FLAG-tagged
H1L1:H1L2 normalized median scalar value ln(r1/f1) [3]: 1.94

CAT-2200 lambda light chain construct (L1) Q38D, FLAG-tagged
H1L1:H1L2 normalized median scalar value ln(r1/f1) [4]: 0.91

CAT-2200 lambda light chain construct (L1) Q38E, FLAG-tagged
H1L1:H1L2 normalized median scalar value ln(r1/f1) [4]: 0.61

CAT-2200 wild type one-armed antibody (OAA), FLAG-tagged light chain
pKd [5]: 9.44
pKd [2]: 9.43

CAT-2200 wild type one-armed antibody (OAA), HA-tagged light chain
pKd [5]: 9.46
pKd [2]: 9.43

CAT-2200 wild type one-armed antibody (OAA), no tags
pKd [5]: 9.54
pKd [2]: 9.55

Pertuzumab Fab heavy chain L45P_L124E_K145T_Q179E
H2L2:H2L1 median scalar value [6]: 3.9 ln(ratio)
H2L2:H2L1 normalized median ratio [6]: 97%

Pertuzumab Fab heavy chain L124E_K145T
H2L2:H2L1 median scalar value [7]: 0.85 ln(ratio)

Pertuzumab Fab heavy chain L124E_K145T_Q179E_S186I_S188W
H2L2:H2L1 normalized median ratio [8]: 16%
H2L2:H2L1 normalized median ratio [9]: 84%
H2L2:H2L1 normalized median scalar value ln(r1/f1) [9]: 1.69
H2L2:H2L1 normalized median ratio [10]: 88%
H2L2:H2L1 normalized median scalar value ln(r1/f1) [10]: 2.04
H2L2:H2L1 normalized median ratio [11]: 12%

Pertuzumab Fab heavy chain L124E_K145T_Q179E_S186I_S188W (H2)
H2L2:H2L1 normalized median scalar value ln(r1/f1) [12]: 0.9
H2L2:H2L1 normalized median scalar value ln(r1/f1) [13]: 1.24
H2L2:H2L1 normalized median scalar value ln(r1/f1) [14]: 1.55

Pertuzumab Fab heavy chain L124E_K145T_Q179E_S188W
H2L2:H2L1 normalized median ratio [8]: 9%
H2L2:H2L1 normalized median ratio [9]: 91%
H2L2:H2L1 normalized median scalar value ln(r1/f1) [9]: 2.31
H2L2:H2L1 normalized median ratio [10]: 96%
H2L2:H2L1 normalized median scalar value ln(r1/f1) [10]: 3.12
H2L2:H2L1 normalized median ratio [11]: 4%

Pertuzumab Fab heavy chain L124E_K145T_S186E
H2L2:H2L1 normalized median ratio [8]: 20%
H2L2:H2L1 normalized median ratio [15]: 80%
H2L2:H2L1 normalized median scalar value ln(r1/f1) [15]: 1.38

Pertuzumab Fab heavy chain L124E_S186I_S188W (H2)
H2L2:H2L1 normalized median scalar value ln(r1/f1) [16]: 0.65
H2L2:H2L1 normalized median scalar value ln(r1/f1) [17]: 0.94
H2L2:H2L1 normalized median scalar value ln(r1/f1) [18]: 1.03
H2L2:H2L1 normalized median scalar value ln(r1/f1) [19]: 1.19

Pertuzumab Fab heavy chain L124K_S188K
H2L2:H2L1 median scalar value [20]: -0.29 ln

Pertuzumab Fab heavy chain L124R_S186K
H2L2:H2L1 normalized median scalar value ln(r1/f1) [21]: 1.22
H2L2:H2L1 normalized median scalar value ln(r1/f1) [22]: 1.32
H2L2:H2L1 normalized median ratio [23]: 21%
H2L2:H2L1 normalized median scalar value ln(r1/f1) [24]: 1.12
H2L2:H2L1 normalized median scalar value ln(r1/f1) [25]: 1.47
H2L2:H2L1 normalized median ratio [26]: 25%
H2L2:H2L1 median scalar value [27]: 0 ln(ratio)
H2L2:H2L1 median scalar value [28]: 0 ln(ratio)

Pertuzumab Fab heavy chain L124R_S186R
H2L2:H2L1 normalized median scalar value ln(r1/f1) [21]: 1.18
H2L2:H2L1 normalized median scalar value ln(r1/f1) [22]: 1.47
H2L2:H2L1 normalized median scalar value ln(r1/f1) [24]: 1.04
H2L2:H2L1 normalized median scalar value ln(r1/f1) [25]: 1.5
H2L2:H2L1 normalized median ratio [26]: 26%
H2L2:H2L1 median scalar value [27]: 0.23 ln(ratio)

Pertuzumab Fab heavy chain L124R_S188K
H2L2:H2L1 median scalar value [20]: 0.54 ln

Pertuzumab Fab heavy chain L143E_K145T_K228D
H2L2:H2L1 normalized median ratio [29]: 28%
H2L2:H2L1 median scalar value [30]: -0.24 ln
H2L2:H2L1 median scalar value [31]: 2.19 ln
H2L2:H2L1 normalized median ratio [31]: 72%

Pertuzumab Fab heavy chain L143E_K145T_Q179E_S186I_S188W
H2L2:H2L1 normalized median scalar value ln(r1/f1) [32]: 1.42
H2L2:H2L1 normalized median scalar value ln(r1/f1) [33]: 2.8

Pertuzumab Fab heavy chain L143E_K145T_Q179E_S188F_V190F
H2L2:H2L1 median scalar value [34]: -0.51 ln

Pertuzumab Fab heavy chain L143E_K145T_Q179E_S188W
H2L2:H2L1 normalized median ratio [8]: 15%
H2L2:H2L1 normalized median ratio [32]: 85%
H2L2:H2L1 normalized median scalar value ln(r1/f1) [32]: 1.71
H2L2:H2L1 normalized median scalar value ln(r1/f1) [33]: 2.83

Pertuzumab Fab heavy chain L143E_K145T_V190F
H2L2:H2L1 median scalar value [35]: -0.23 ln

Pertuzumab Fab heavy chain L143I_S186K_K228D
H2L2:H2L1 median scalar value [36]: -0.18 ln(ratio)

Pertuzumab Fab heavy chain L143I_S186K_V190F
H2L2:H2L1 median scalar value [37]: -0.49 ln(ratio)

Pertuzumab Fab heavy chain L143I_V190F (H2), ABD2-His6 tagged
H2L2:H2L1 normalized median ratio [38]: 46%
H2L2:H2L1 normalized median scalar value ln(r1/f1) [38]: -0.16
H2L2:H2L1 normalized median ratio [39]: 38%
H2L2:H2L1 normalized median ratio [40]: 49%
H2L2:H2L1 normalized median scalar value ln(r1/f1) [40]: -0.04
H2L2:H2L1 normalized median ratio [41]: 65%
H2L2:H2L1 normalized median scalar value ln(r1/f1) [41]: 0.62
H2L2:H2L1 normalized median ratio [42]: 62%
H2L2:H2L1 normalized median scalar value ln(r1/f1) [42]: 0.49

Pertuzumab Fab heavy chain L143R_V190F
H2L2:H2L1 median scalar value [37]: 1.25 ln(ratio)

Pertuzumab Fab heavy chain S186K_K228D
H2L2:H2L1 median scalar value [36]: -0.5 ln(ratio)

Pertuzumab Fab heavy chain S186K_V190F
H2L2:H2L1 median scalar value [37]: -0.45 ln(ratio)

Pertuzumab Fab heavy chain S188F (H2), ABD2-His6 tagged
H2L2:H2L1 normalized median ratio [39]: 28%
H2L2:H2L1 normalized median ratio [43]: 72%
H2L2:H2L1 normalized median scalar value ln(r1/f1) [43]: 0.93

Pertuzumab heavy chain Fab construct L124R_S186K
H2L2:H2L1 normalized median scalar value ln(r1/f1) [44]: 1.12
H2L2:H2L1 normalized median scalar value ln(r1/f1) [45]: 1.47
H2L2:H2L1 normalized median scalar value ln(r1/f1) [46]: 1.22
H2L2:H2L1 normalized median scalar value ln(r1/f1) [47]: 1.32
